Results: the supplement of paper PMC10065799, “High-throughput profiling of sequence recognition by tyrosine kinases and SH2 domains using bacterial peptide display” (eLife, 2023)

Experiments:
FGFR1 = FGFR1 (UniProt P11362); assay: phosphorylation enrichment, bacterial display (enrichment ratio); higher = better substrate or ligand; peptides without Tyr show the background
FGFR3 = FGFR3 (UniProt P22607); assay: as above
c-Src = assay: as above
c-Abl (mouse) = assay: as above
Jak2 = Jak2 (UniProt O60674); assay: as above
Fes = Fes (UniProt P07332); assay: as above
Fer (mouse) = assay: as above
Hck = Hck (UniProt P08631); assay: as above
Fyn = Fyn (UniProt P06241); assay: as above
EPHB1 = EPHB1 (UniProt P54762); assay: as above
MERTK = MERTK (UniProt Q12866); assay: as above
EPHB2 = EPHB2 (UniProt P29323); assay: as above
AncSZ = assay: as above
SHP2-C SH2 = assay: SH2 binding enrichment of the phosphorylated peptide, bacterial display (enrichment ratio); higher = better substrate or ligand; peptides without Tyr show the background
Grb2 SH2 = Grb2 SH2 (UniProt P62993); assay: as above
c-Src SH2 = assay: as above
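For SH2 binding enrichment of the phosphorylated peptide, bacterial display in this document: peptide library displayed on the E. coli surface as eCPX fusions, selected cells deep-sequenced, score is each peptide's frequency after selection divided by its frequency in the input.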
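For phosphorylation enrichment, bacterial display in this document: 11-residue human phosphosite peptides and single-mutation variants displayed on the E. coli surface, counted by deep sequencing, each peptide's frequency after selection divided by its frequency in the unselected input library; frequency after pTyr selection over input frequency; kinase dosed for 20-30% of maximal phosphorylation in three min.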

Hck, sequence (P08631 whole entry, looked up): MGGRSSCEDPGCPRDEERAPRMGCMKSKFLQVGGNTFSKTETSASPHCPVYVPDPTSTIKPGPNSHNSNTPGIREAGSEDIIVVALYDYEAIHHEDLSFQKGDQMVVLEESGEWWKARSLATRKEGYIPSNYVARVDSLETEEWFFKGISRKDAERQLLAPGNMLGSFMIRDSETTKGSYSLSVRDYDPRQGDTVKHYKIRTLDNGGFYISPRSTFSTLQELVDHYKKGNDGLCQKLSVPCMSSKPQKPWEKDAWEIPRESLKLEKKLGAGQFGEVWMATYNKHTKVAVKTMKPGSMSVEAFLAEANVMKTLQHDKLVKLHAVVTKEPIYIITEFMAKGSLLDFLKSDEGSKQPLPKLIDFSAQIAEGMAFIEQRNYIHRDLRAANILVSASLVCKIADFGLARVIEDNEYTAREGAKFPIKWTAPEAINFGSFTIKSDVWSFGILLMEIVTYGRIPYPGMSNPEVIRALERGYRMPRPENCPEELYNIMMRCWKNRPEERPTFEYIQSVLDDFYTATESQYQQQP
FGFR1, sequence (P11362 whole entry, looked up): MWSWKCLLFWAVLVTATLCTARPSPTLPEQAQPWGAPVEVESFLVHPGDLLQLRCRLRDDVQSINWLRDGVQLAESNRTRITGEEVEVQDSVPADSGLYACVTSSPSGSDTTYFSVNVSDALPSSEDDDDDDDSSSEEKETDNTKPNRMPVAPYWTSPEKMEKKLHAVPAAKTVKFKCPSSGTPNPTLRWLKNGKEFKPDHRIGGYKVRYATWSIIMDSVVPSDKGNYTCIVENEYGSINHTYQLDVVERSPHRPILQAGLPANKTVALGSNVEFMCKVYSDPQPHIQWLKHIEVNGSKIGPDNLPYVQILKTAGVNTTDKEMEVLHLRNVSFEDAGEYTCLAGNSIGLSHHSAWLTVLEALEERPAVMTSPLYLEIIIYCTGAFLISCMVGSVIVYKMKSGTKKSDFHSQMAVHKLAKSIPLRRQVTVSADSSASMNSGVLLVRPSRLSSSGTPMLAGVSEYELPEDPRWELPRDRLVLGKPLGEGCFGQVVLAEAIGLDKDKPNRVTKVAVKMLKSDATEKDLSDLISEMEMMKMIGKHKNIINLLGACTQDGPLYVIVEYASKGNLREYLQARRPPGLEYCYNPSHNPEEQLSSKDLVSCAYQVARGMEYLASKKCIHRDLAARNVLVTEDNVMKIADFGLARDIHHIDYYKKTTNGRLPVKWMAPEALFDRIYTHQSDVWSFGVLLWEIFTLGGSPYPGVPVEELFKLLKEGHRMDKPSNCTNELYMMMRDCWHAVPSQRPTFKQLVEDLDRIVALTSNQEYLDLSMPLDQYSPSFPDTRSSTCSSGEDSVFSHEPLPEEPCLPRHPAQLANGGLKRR
EPHB2, sequence (P29323 whole entry, looked up): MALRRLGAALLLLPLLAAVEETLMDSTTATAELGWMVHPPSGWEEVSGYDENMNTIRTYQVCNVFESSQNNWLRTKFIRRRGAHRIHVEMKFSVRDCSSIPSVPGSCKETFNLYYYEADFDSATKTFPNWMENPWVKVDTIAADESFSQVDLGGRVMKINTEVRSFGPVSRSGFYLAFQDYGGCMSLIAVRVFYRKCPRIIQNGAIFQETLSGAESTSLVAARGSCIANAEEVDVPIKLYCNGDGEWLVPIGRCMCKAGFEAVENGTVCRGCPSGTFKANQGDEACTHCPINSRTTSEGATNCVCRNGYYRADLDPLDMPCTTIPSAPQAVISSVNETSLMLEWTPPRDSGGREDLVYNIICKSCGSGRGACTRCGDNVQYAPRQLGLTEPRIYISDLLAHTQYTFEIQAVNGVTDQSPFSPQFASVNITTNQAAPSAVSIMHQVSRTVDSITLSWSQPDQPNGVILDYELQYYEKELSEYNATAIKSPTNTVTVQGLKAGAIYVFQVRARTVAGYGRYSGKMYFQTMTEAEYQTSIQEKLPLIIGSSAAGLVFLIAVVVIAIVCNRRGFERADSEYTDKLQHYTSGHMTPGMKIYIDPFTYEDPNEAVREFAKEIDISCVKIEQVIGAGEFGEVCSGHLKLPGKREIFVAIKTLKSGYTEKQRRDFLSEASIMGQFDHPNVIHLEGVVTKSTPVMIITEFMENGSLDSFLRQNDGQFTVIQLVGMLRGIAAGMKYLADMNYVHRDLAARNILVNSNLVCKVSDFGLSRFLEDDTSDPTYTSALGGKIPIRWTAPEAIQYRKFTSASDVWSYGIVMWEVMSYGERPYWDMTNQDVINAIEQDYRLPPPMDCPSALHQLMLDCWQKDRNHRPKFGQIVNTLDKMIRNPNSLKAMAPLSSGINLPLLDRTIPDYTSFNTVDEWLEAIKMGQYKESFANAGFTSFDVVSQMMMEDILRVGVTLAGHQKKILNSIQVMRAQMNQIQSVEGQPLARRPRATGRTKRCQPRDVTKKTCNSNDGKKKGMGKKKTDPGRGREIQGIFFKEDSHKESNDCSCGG
FGFR3, sequence (P22607 whole entry, looked up): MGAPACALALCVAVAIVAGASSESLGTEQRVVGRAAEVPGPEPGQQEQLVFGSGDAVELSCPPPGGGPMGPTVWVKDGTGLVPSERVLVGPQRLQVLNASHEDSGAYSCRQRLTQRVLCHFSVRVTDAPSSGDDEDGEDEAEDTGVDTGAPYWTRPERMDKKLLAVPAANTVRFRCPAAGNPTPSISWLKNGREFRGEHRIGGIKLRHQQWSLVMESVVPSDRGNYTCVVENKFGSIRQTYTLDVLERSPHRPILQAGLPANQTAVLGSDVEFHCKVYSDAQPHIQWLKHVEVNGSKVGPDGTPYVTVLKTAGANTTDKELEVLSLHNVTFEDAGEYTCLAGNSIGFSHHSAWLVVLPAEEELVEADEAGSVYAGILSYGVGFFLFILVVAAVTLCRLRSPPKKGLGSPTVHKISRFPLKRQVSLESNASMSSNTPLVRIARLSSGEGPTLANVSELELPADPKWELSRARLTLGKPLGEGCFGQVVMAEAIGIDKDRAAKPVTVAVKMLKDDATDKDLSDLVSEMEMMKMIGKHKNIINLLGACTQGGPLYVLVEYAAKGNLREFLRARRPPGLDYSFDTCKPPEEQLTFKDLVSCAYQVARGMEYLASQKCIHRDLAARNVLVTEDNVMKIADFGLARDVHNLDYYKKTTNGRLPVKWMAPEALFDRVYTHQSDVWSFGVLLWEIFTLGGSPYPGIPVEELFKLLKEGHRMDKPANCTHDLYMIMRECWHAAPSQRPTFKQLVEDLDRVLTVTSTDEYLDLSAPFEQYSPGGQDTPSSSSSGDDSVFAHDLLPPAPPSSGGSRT
Fyn, sequence (P06241 whole entry, looked up): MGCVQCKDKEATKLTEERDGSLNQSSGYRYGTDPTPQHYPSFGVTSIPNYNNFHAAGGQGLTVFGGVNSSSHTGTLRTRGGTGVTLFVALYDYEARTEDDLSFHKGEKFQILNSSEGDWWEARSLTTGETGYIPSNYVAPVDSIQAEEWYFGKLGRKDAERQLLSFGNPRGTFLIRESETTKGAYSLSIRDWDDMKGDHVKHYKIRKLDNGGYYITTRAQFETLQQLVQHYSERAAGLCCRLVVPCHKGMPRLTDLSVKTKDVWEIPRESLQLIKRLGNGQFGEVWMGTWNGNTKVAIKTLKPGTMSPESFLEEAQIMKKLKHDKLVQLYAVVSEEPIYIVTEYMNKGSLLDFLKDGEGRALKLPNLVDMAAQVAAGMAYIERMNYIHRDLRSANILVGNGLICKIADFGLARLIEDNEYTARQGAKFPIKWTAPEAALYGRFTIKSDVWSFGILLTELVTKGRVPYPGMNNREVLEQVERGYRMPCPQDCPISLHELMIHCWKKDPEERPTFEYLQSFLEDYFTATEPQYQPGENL
Jak2, sequence (O60674 whole entry, looked up): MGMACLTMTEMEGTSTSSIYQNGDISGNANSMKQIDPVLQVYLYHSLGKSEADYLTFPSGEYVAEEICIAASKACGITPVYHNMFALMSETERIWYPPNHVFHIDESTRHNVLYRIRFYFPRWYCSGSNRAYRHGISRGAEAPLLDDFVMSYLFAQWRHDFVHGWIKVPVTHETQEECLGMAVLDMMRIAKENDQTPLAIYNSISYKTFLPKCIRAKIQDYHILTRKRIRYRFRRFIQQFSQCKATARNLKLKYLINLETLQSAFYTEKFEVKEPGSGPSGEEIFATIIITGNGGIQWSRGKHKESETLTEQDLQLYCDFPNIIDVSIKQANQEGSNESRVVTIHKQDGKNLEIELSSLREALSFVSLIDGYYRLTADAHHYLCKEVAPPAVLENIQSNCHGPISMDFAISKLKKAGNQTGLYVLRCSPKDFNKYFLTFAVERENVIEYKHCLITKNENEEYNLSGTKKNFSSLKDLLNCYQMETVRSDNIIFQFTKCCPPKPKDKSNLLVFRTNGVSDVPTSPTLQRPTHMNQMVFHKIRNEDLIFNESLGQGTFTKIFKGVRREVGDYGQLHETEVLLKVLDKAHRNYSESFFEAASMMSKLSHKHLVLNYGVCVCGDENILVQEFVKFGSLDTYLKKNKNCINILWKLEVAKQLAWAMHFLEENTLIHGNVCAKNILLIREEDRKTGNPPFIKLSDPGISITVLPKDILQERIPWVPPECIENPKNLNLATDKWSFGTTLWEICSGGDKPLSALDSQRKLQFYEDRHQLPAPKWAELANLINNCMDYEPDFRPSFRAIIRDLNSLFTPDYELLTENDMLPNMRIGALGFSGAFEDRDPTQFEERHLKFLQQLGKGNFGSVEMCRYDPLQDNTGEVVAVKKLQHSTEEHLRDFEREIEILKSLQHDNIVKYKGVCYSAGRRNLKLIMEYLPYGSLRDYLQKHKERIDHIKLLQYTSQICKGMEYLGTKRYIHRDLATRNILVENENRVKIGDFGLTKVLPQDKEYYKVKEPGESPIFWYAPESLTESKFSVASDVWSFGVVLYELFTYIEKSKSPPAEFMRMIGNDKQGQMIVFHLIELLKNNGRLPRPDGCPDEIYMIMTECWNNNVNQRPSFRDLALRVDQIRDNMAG

Row | SH2 binding enrichment (SHP2-C SH2) | SH2 binding enrichment (Grb2 SH2) | SH2 binding enrichment (c-Src SH2) | Sequence | phosphorylation enrichment (FGFR1) | phosphorylation enrichment (FGFR3) | phosphorylation enrichment (c-Src) | phosphorylation enrichment (c-Abl (mouse)) | phosphorylation enrichment (Jak2) | phosphorylation enrichment (Fes) | phosphorylation enrichment (Fer (mouse)) | phosphorylation enrichment (Hck) | phosphorylation enrichment (Fyn) | phosphorylation enrichment (EPHB1) | phosphorylation enrichment (MERTK) | phosphorylation enrichment (EPHB2) | phosphorylation enrichment (AncSZ)
1 | 0.562 | 1.16 | 0.664 | ETKENYGKTLK [CHL1_Y291] | 0.325 | 0.508 | 0.433 | 0.414 | 0.504 | 0.541 | 0.351 | 0.498 | 0.61 | 0.348 | 0.383 | 0.297 | 0.526
2 | 1.09 | 1.35 | 1.04 | KWKQKYEESQS [MYH6_Y1462_E1457K] | 0.431 | 0.693 | 0.38 | 0.73 | 0.85 | 0.887 | 0.405 | 0.531 | 0.481 | 0.508 | 0.431 | 0.52 | 0.671
3 | 0.659 | 0.892 | 0.769 | SMVVPYEPPEV [TP53_Y220_V216M] | 0.45 | 0.81 | 0.526 | 0.852 | 1.3 | 1.33 | 0.617 | 0.407 | 0.462 | 0.592 | 0.465 | 0.625 | 1.11
4 | 0.456 | 0.725 | 0.56 | DNEALYDTCFR [TUBB2B_Y208_I210T] | 0.61 | 0.888 | 5.2 | 2.25 | 1.23 | 1.49 | 8.38 | 6.09 | 6.81 | 2.85 | 6.63 | 2.71 | 2.34
5 | 0.616 | 0.636 | 7.16 | ELSDGYWVVSN [TPP1_Y459_A454E] | 1.3 | 1.21 | 0.588 | 0.778 | 1.63 | 1.34 | 0.528 | 0.647 | 0.507 | 0.559 | 0.396 | 0.664 | 1.39
6 | 0.722 | 0.9 | 0.781 | LEISPYMLSGR [LRRK2_Y1718] | 0.718 | 0.652 | 0.929 | 0.491 | 0.64 | 1.28 | 0.806 | 0.932 | 1.44 | 1.02 | 0.588 | 1.1 | 0.852
7 | 1.23 | 1.21 | 1.15 | FRPPYYHRNCM [HGD_Y334] | 0.513 | 0.504 | 0.442 | 0.799 | 0.89 | 0.88 | 0.477 | 0.432 | 0.418 | 0.429 | 0.426 | 0.449 | 0.708
8 | 0.68 | 0.852 | 0.435 | SFNNKYGMVAQ [APOB_Y276_K273N_YF] | 0.4 | 0.469 | 0.384 | 0.462 | 0.509 | 0.51 | 0.399 | 0.422 | 0.395 | 0.332 | 0.431 | 0.504 | 0.542
9 | 0.761 | 1.21 | 0.741 | CEHRGYLYLAI [TEK_Y897] | 0.726 | 0.72 | 0.527 | 0.84 | 0.973 | 1.51 | 0.551 | 0.614 | 0.494 | 0.664 | 0.708 | 0.53 | 1.04
10 | 0.979 | 1.98 | 6.28 | SAASGYSDVTD [DTX2_Y425_T421A] | 0.633 | 0.569 | 0.338 | 0.446 | 0.963 | 0.95 | 0.535 | 0.458 | 0.232 | 0.646 | 0.294 | 0.589 | 0.866
11 | 0.755 | 0.964 | 0.609 | EKLIQYCQSKS [AKR1B1_Y199_G204S] | 0.459 | 0.642 | 0.448 | 0.638 | 0.562 | 0.807 | 0.476 | 0.46 | 0.475 | 0.584 | 0.395 | 0.588 | 0.679
12 | 0.461 | 0.716 | 0.37 | KLIETYFSKNY [PLP1_Y50] | 0.334 | 0.453 | 0.41 | 0.574 | 0.719 | 0.732 | 0.285 | 0.52 | 0.355 | 0.371 | 0.374 | 0.329 | 0.701
13 | 0.752 | 0.619 | 1.8 | HNLYSYPTKHE [MYO3A_Y1396] | 0.782 | 0.838 | 2.96 | 3.28 | 0.561 | 1.18 | 15.2 | 8.1 | 5.22 | 11.6 | 13.6 | 16 | 3.92
14 | 0.636 | 0.976 | 0.637 | IQKKYYRAILE [CHD7_Y1218] | 0.424 | 0.485 | 0.324 | 0.468 | 0.563 | 0.761 | 0.384 | 0.432 | 0.407 | 0.396 | 0.341 | 0.586 | 0.649
15 | 0.501 | 0.723 | 0.498 | INMKEYCKKDY [NTN1_Y490_K489E] | 0.447 | 0.595 | 0.429 | 0.661 | 1.29 | 0.944 | 0.615 | 0.477 | 0.451 | 0.461 | 0.364 | 0.462 | 0.824
16 | 0.724 | 0.802 | 0.647 | PYIDSYEKDVA [PGM1_Y521_L516P] | 0.907 | 1.08 | 0.703 | 0.961 | 1.61 | 1.48 | 0.852 | 0.725 | 0.684 | 0.907 | 0.763 | 0.857 | 1.66
17 | 0.763 | 0.835 | 0.811 | IVVVPYEPPEV [TP53_Y220_S215I] | 0.511 | 0.665 | 0.386 | 0.733 | 0.882 | 1.08 | 0.554 | 0.48 | 0.43 | 0.636 | 0.448 | 0.544 | 1.01

Row | SH2 binding enrichment (SHP2-C SH2) | SH2 binding enrichment (Grb2 SH2) | SH2 binding enrichment (c-Src SH2) | Sequence | phosphorylation enrichment (FGFR1) | phosphorylation enrichment (FGFR3) | phosphorylation enrichment (c-Src) | phosphorylation enrichment (c-Abl (mouse)) | phosphorylation enrichment (Jak2) | phosphorylation enrichment (Fes) | phosphorylation enrichment (Fer (mouse)) | phosphorylation enrichment (Hck) | phosphorylation enrichment (Fyn) | phosphorylation enrichment (EPHB1) | phosphorylation enrichment (MERTK) | phosphorylation enrichment (EPHB2) | phosphorylation enrichment (AncSZ)
18 | 6.52 | 0.988 | 10 | LTDRGYSFVTT [ACTA1_Y200_E197D] | 0.772 | 0.756 | 0.6 | 1.17 | 1.88 | 1.23 | 0.653 | 0.677 | 0.8 | 0.852 | 0.846 | 1.04 | 1.38
19 | 0.791 | 0.765 | 0.775 | EAEPYYRSLRD [NPHS1_Y1139] | 0.505 | 0.585 | 0.601 | 0.709 | 0.785 | 0.911 | 0.428 | 0.521 | 0.479 | 0.487 | 0.467 | 0.594 | 0.929
20 | 0.641 | 1.04 | 0.806 | IVFTSYVLTIL [TAS2R16_Y239_F240V] | 0.71 | 1.17 | 0.55 | 1.05 | 1.55 | 1.73 | 0.731 | 0.623 | 0.667 | 0.884 | 0.526 | 0.794 | 1.41
21 | 3.03 | 0.762 | 0.391 | SEEVNYATLTF [CLEC12B_Y7_T6N] | 1.25 | 1.4 | 1.41 | 1.38 | 1.12 | 1.37 | 1.45 | 1.66 | 1.33 | 1.98 | 0.905 | 1.46 | 1.1
22 | 0.753 | 0.733 | 0.874 | ADDSYYTVRSA [ZAP70_Y493_A495V] | 7.54 | 5.2 | 2.45 | 0.611 | 1.47 | 0.941 | 0.425 | 2.89 | 2.01 | 0.709 | 0.784 | 0.637 | 1.56
23 | 0.537 | 0.62 | 0.885 | QRALLYEDTLY [UNC13D_Y56_A59T] | 0.648 | 1.02 | 3.24 | 0.819 | 0.942 | 2.2 | 12.1 | 4.67 | 3.98 | 15.2 | 6 | 12.5 | 1.54
24 | 0.626 | 0.728 | 0.708 | ERIEFYELDKK [PMM2_Y145] | 0.395 | 0.76 | 0.49 | 0.771 | 0.892 | 1.09 | 0.742 | 0.588 | 0.484 | 0.652 | 0.393 | 0.554 | 1.05
25 | 0.812 | 1.01 | 0.612 | GDEAIYATVAG [NRTKtide_2018] | 3.87 | 3 | 7.59 | 22.1 | 0.803 | 2.64 | 13.4 | 9.26 | 10.7 | 12.1 | 9.16 | 15.5 | 1.59
26 | 1.08 | 1.29 | 0.906 | PLQKIYNFNVL [SLC4A1_Y553_T552I_YF] | 0.793 | 0.684 | 2.63 | 1.06 | 1.19 | 1.44 | 0.795 | 1.12 | 1.43 | 0.743 | 0.811 | 0.84 | 0.985
27 | 0.861 | 0.827 | 10.4 | ISMAGYSIPEL [EDAR_Y406_T403M] | 0.494 | 0.54 | 0.508 | 1.15 | 0.68 | 0.787 | 0.455 | 0.437 | 0.448 | 0.395 | 0.573 | 0.553 | 0.647
28 | 0.587 | 0.91 | 0.484 | HSDYQYSQRSQ [PKP2_Y168] | 0.344 | 0.377 | 0.519 | 0.749 | 1.11 | 0.587 | 0.365 | 0.353 | 0.39 | 0.495 | 0.501 | 0.645 | 0.821
29 | 0.922 | 0.823 | 0.5 | GLAKGYIDPET [CSNK1G2_Y195_E194G] | 0.476 | 0.48 | 0.554 | 0.454 | 0.694 | 0.795 | 0.482 | 0.513 | 0.558 | 0.509 | 0.472 | 0.588 | 1.04
30 | 0.89 | 1.2 | 0.846 | IWGKKYPTCNS [PTPRZ1_Y53_N48I] | 0.432 | 0.607 | 0.397 | 0.628 | 0.667 | 0.776 | 0.518 | 0.406 | 0.369 | 0.441 | 0.407 | 0.491 | 0.697
31 | 6.41 | 0.784 | 1.85 | SLIDGYFRLTE [JAK2_Y372_A377E_YF] | 0.553 | 0.715 | 0.446 | 0.867 | 4.29 | 1.08 | 0.545 | 0.442 | 0.456 | 0.571 | 0.542 | 0.436 | 1.07
32 | 0.57 | 0.779 | 0.478 | IDGLEYLHSQG [STK11_Y166] | 0.445 | 0.637 | 0.417 | 0.574 | 0.796 | 0.906 | 0.426 | 0.413 | 0.619 | 0.578 | 0.368 | 0.499 | 0.737
33 | 0.52 | 0.814 | 0.461 | CGTPDYIDPEI [PRKCG_Y521_A523D] | 2.28 | 1.85 | 0.481 | 0.813 | 1.31 | 1.41 | 0.531 | 0.7 | 0.581 | 1.1 | 0.454 | 0.725 | 1.58
